Assay results published in patent US20150368357A1.

Assays:
[1] = molecular target: HER2 (Human Epidermal Growth Factor Receptor 2) expressed on SK-BR-3 cells (human) (UniProt P04626); experiment: flow cytometry, SK-BR-3 cells; mAb 0.4 ng/ml as headed
[2] = molecular target: HER2 (Human Epidermal Growth Factor Receptor 2) expressed on SK-BR-3 cells (human) (UniProt P04626); experiment: flow cytometry, SK-BR-3 cells; mAb 50 ng/ml as headed
[3] = molecular target: HER2 (Human Epidermal Growth Factor Receptor 2) expressed on SK-BR-3 cells (human) (UniProt P04626); experiment: flow cytometry, SK-BR-3 cells; mAb 0.2 ng/ml as headed

Anti-idiotypic FVIII (a chimeric anti-Factor VIII antibody produced by rat hybridoma YB2/0)
MFI [1]: 0 MFI
MFI [2]: 16 MFI
MFI [3]: 0 MFI
